Results taken from PMC5880107, “The Sequence-specific Peptide-binding Activity of the Protein Sulfide Isomerase AGR2 Directs Its Stable Binding to the Oncogenic Receptor EpCAM*^([image sbox.jpg])” (Molecular & Cellular Proteomics : MCP, 2018).
Residue numbers refer to the chain shown, from its start. Names may count otherwise. No end group written: not given here.

T1: biotinylated Peptide A4 (AGR2-binding peptide aptamer, HLPTTIYYGPPG) (also: biotinylated, end not given here)
T1 construct: also called TTIYY-containing peptide; source: synthetic peptide (Chiron Mimotopes)
T1 peptide: HLPTTIYYGPPG

T2: His-EpEX-CO, extracellular domain of EpCAM (amino acids 24-265), N-terminal 6xHis tag (human)
T2 construct: human EpCAM extracellular domain (EpEX), amino acids 24-265 of NM_002354; For HDX the protein was eluted with 1 mM DTT in the final buffer; also called wt-EpCAM; His-EpCAM; source: E. coli BL21-DE3, solubilised with 7 M urea, purified (Ni-NTA agarose); not shown: His6 followed by a TEV protease site, N-terminal, kept
T2 chain: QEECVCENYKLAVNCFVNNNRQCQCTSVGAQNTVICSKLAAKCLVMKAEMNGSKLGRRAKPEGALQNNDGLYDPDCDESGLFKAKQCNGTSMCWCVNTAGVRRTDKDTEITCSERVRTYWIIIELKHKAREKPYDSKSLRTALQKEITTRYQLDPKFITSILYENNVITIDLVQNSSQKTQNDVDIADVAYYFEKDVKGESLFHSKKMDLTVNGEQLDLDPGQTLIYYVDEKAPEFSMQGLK

T3: 16mer AGR2-interacting peptide SGSG-HLPTTIYYGPPG
T3 construct: peptide A4 with an N-terminal SGSG stretch, as used for hydrogen-deuterium exchange; also called peptide A4 (in the HDX experiment); consensus site peptide A4; source: synthetic peptide (Chiron Mimotopes), stock 5 mg/ml in DMSO
T3 peptide: SGSGHLPTTIYYGPPG

B1: His-AGR2 WT (mature AGR2, amino acids 21-175, N-terminal 6xHis tag; plasmid pmAGR2) (natural protein, human)
chain: RDTTVKPGAKKDTKDSRPKLPQTLSRGWGDQLIWTQTYEEALYKSKTSSKPLMIIHHLDECPHSQALKKVFAENKEIQKLAEQFVLLNLVYETTDKHLSPDGQYVPRIMFVDPSLTVRADITGRYSNRLYAYEPADTALLLDNMKKALKLLKTEL
notes: human AGR2, mature form without the ER leader, residues 21-175; also called wt-AGR2; wild-type AGR2; source: E. coli BL21-AI, purified (Ni-NTA agarose; gel filtration buffer exchange for HDX)
B2: His-AGR2 S134A (plasmid pmAGR2S134A) (natural protein, human)
chain: B1 chain with S114A
notes: Ser at 69 as in m1; also called mutant AGR2^S134A; source: E. coli BL21-AI, purified (Ni-NTA agarose; gel filtration buffer exchange for HDX)
B3: His-AGR2 P133A (plasmid pmAGR2P133A) (natural protein, human)
chain: B1 chain with P113A
notes: human AGR2 residues 21-175; source: E. coli BL21-AI, purified (Ni-NTA agarose); not shown: His6 (leader as in m1), N-terminal, kept
B4: His-AGR2 D132A (plasmid pmAGR2D132A) (natural protein, human)
chain: B1 chain with D112A
notes: as for B3
B5: wt-peptide PTTIYY (non-biotinylated hexapeptide) (peptide)
peptide: PTTIYY
notes: also called PTTIYY hexapeptide; source: synthetic peptide
B6: PTTIYY hexapeptide with Tyrosine at position 6 changed to Phenylalanine (peptide)
peptide: PTTIYF
notes: also called PTTIYF; source: synthetic peptide (mutational scan library)
B7: PTTIYY hexapeptide with Tyrosine at position 6 changed to Tryptophan (peptide)
peptide: PTTIYW
notes: also called PTTIYW; source: synthetic peptide (mutational scan library)
B8: PTTIYY hexapeptide with Isoleucine at position 4 changed to Leucine (peptide)
peptide: PTTLYY
notes: also called PTTLYY; source: synthetic peptide (mutational scan library)
B9: PTTIYY hexapeptide with Tyrosine at position 5 changed to Phenylalanine (peptide)
peptide: PTTIFY
notes: also called PTTIFY; source: synthetic peptide (mutational scan library)
B10: PTTIYY hexapeptide with Tyrosine at position 5 changed to Tryptophan (peptide)
peptide: PTTIWY
notes: also called PTTIWY; source: synthetic peptide (mutational scan library)
B11: PTTIYY hexapeptide with the Y-A mutation at position 6 (peptide)
peptide: PTTIYA
notes: also called PTTIYA; source: synthetic peptide (mutational scan library)

Target: T1, biotinylated Peptide A4 (AGR2-binding …)
Assay: ELISA; biotinylated peptide A4 (5 μg/well) captured on streptavidin-coated microtitre plate; wt or mutant AGR2 titrated in 3% BSA in PBS-T, 1 h room temperature; detected with AGR2 antibody K47, RLU
Conditions: both partners purified

Binder | binding result
B1 | binds
B2 | binds
B3 | binds
B4 | binds

Target: T2, His-EpEX-CO, extracellular domain of …
Assay: ELISA; His-EpCAM (EpEX, wt or Y251A) immobilised on polystyrene microtitre plate in 0.1 M NaHCO3 pH 8.6; AGR2 wt or mutants titrated in the mobile phase (0-1 μg), 1 h room temperature; without or with 1 mM DTT at the binding or the blocking step; detected with AGR2 antibody K47, RLU
Conditions: both partners purified

Binder | binding result
B1 | binds
B2 | binds
B3 | binds
B4 | binds

Target: free consensus site containing peptides
Assay: fluorescence polarisation; data not shown; AGR2 binding to free consensus site containing peptides in solution
Conditions: not given

Binder | Kd [µM]
B1 | 15 to 45

Target: B1
Assay: ELISA; competition: biotinylated peptide A4 on the streptavidin-coated solid phase; fixed 1 μg AGR2 added with 100 ng of the indicated non-biotinylated synthetic peptide; AGR2 binding in RLU
Conditions: both partners purified

Binder | binding result
B5 | binds
B6 | binds
B7 | binds
B8 | binds
B9 | binds
B10 | binds
B11 | binds

Target: T3, 16mer AGR2-interacting peptide …
Assay: HDX-MS; His-AGR2 WT 1 μM incubated 30 min with peptide 10 μM (1% DMSO), 10-fold dilution into deuterated buffer (20 mM Tris-HCl pD 7.6, 150 mM NaCl, 10 mM MgCl2), room temperature, 30 s to 3 h, pepsin
Conditions: both partners purified

Binder | binding result
B1 | binds
